From US20140161804A1 (AbbVie / Abbott, published 2014) come the findings set out here.

Assay [1] deals with T1, Human TNF (human, UniProt P01375 77-233).
T1 construct: Biotinylated in the ELISA; purified recombinant protein in SPR; also called h TNF; huTNF
In words: in vitro display selection on recombinant human TNF.

The target of assay [2] is T2, Human IL-17A (human, UniProt Q16552 20-155, limits assumed).
T2 construct: Biotinylated in the ELISAs; purified recombinant protein in SPR; also called hIL17A; hIL-17
In words: SPR (Biacore T200), DVD-Ig captured by anti-human IgG Fc, antigen in solution. The procedure:
(§1) The binding of antibodies to purified recombinant IL-17 and TNFα proteins were determined by surface plasmon resonance-based measurements with a Biacore® T200 instrument (GE Healthcare) using running HBS-EP (10 mM HEPES [pH 7.4], 150 mM NaCl, 3 mM EDTA, and 0.005% surfactant P20) containing 0.1 mg/ml BSA at 25° C. All chemicals were obtained from Biacore® AB (GE Healthcare) or otherwise from a different source as described in the text. Approximately 5000 RU of goat anti-human IgG (Fcγ) fragment specific polyclonal antibody (Pierce Biotechnology Inc, Rockford, Ill.) diluted in 10 mM sodium acetate (pH 4.5) was directly immobilized across a CM5 research grade biosensor chip using a standard amine coupling kit according to manufacturer's instructions and procedures at 25 ug/ml. Unreacted moieties on the biosensor surface were blocked with ethanolamine. Modified carboxymethyl dextran surface in flowcell 2, 3 and 4 were used as a reaction surface. Modified carboxymethyl dextran with goat IgG in flow cell 1 was used as the reference surface. For kinetic analysis, rate equations derived from the 1:1 Langmuir binding model were fitted simultaneously to association and dissociation phases of all six injections (using global fit analysis with local float for Rmax) with the use of Biacore T200 Evaluation software v.1.0. Purified antibodies were diluted in HEPES-buffered saline for capture across goat anti-human IgG specific reaction surfaces. Antibodies to be captured as ligand (1-5 μg/ml) were injected over reaction matrices at a flow rate of 50 μl/minute. Association phase was monitored for 5 minutes, while dissociation phase was monitored for 10-60 minutes to accommodate for slower off-rates. The association and dissociation rate constants, ka (unit M-1 s-1) and kd (unit s-1) were determined under a continuous flow rate of 50 μl/minute. Rate constants were derived by making kinetic binding measurements at six different antigen concentrations ranging from 0.78 nM to 100 nM, depending on the species of IL-17 or TNFα tested. The association ka, dissociation rate kd and equilibrium dissociation constant KD were calculated with the use of the same Biacore T200 Evaluation software v.1.0.

The target of the next assay is T3, Cynomolgus monkey IL-17A (cynomolgus monkey, UniProt A0A2K5TTB0 24-155).
T3 construct: also called Cyno IL-17AA; Cyno IL17AA
The description is as above. The procedure: as §1

The target of assay [3] is T1, Human TNF. The assay is described as above. The procedure: as §1
A further assay concerns the target T4, Rhesus TNFa (rhesus, UniProt P48094 77-233).
T4 construct: also called Rhesus TNF-alpha
The description is as above. The procedure:
as §1

In assay [4] the target is T2, Human IL-17A. In words: ELISA, captured DVD-Ig, biotin-human IL-17 titrated. The method in brief:
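Plate coated with goat anti-mouse IgG-Fc, then antibody captured at 1 μg/ml; serially diluted biotinylated human TNF or IL-17 added 1 h at RT. Bound ligand detected with streptavidin-HRP and TMB, absorbance at 450 nm.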

The target in assay [5] is T1, Human TNF. In words: cell-based or functional assay.
Assay [6] deals with T1, Human TNF. In words: ELISA, captured DVD-Ig, biotin-human TNF titrated. Here is the method: The following protocol is used to characterize the binding of TNF/IL-17 DVD-Ig proteins to human TNF and IL-17 by enzyme-linked immunosorbent assay (ELISA). An ELISA plate was coated with 50 μl per well of goat anti mouse IgG-Fc at 2 μg/ml, overnight at 4° C. The plate was washed 3 times with PBS/Tween. 50 μl Mab diluted to 1 μg/ml in PBS/0.1% BSA was added to appropriate wells and incubated for 1 hour at room temperature (RT). The plate was washed 3 times with PBS/Tween. 50 μl of serial diluted biotin-human TNF or IL-17 was added to appropriate wells and incubated for 1 hour at RT. The plate was washed 3 times with PBS/Tween. 50 μl of streptavidin-HRP diluted 1:10,000 in PBS/0.1% BSA was added to appropriate wells and incubated for 1 hour at RT. The plate was washed 3 times with PBS/Tween. 50 μl of TMB was added to appropriate wells and the reaction allowed to proceed for 1 minute. The reaction was stopped with 50 μl/well 2N H₂SO₄ and the absorbance read at 450 nm.

T3 sequence (A0A2K5TTB0 entry or part of it): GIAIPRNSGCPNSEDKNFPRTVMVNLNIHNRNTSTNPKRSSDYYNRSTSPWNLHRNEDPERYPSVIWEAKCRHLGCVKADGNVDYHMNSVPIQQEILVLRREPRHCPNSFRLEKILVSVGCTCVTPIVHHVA
T2 sequence (Q16552 20-155 limits assumed): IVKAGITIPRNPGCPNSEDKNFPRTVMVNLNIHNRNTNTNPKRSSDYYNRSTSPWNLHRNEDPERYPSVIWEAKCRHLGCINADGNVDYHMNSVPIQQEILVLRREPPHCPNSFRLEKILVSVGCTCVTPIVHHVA
T1 sequence (P01375 77-233 limits assumed): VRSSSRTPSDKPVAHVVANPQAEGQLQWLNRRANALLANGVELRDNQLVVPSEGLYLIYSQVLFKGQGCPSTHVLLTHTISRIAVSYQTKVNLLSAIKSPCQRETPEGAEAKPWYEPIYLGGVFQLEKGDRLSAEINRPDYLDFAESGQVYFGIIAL
T4 sequence (P48094 77-233 limits assumed): as the sequence (P01375 77-233 limits assumed) above, with R44T, T72N, R138L counted along it

B1: TNF-JK1 (antibody, V domains shown)
VH: EVQLVESGGGLVQPGGSLRLSCATSGFTFNNYWMSWVRQAPGKGLEWVANINHDESEKYYVDSAKGRFTISRDNAEKSLFLQMNSLRAEDTAVYYCARIIRGRVGFDYYNYAMDVWGQGTLVTVSS
VL: DIRLTQSPSPLSASVGDRVTITCRASQSIGNYLNWYQHKPGKAPKLLIYAASSLQSGVPSRFSGTGSGTDFTLTISSLQPEDFATYYCQESYSLIFAGGTKVEIK
notes: Fully human anti-TNF antibody isolated by in vitro display; also called TNF-JK1 VH; TNF-JK1 VL
Regarding B1, in the assay with Human TNF [1], the binding result is on record as “binds”.

B2: AE11-1 (antibody, V domains shown)
VH: EVQLVQSGAEVKKPGASVKVSCKASGYTFTSYDVNWVRQATGQGLEWMGWMNPNSGNTGYAQKFQGRVTITADESTSTAYMELSSLRSEDTAVYYCAIFDSDYMDVWGKGTLVTVSS
VL: SYELTQPPSVSLSPGQTARITCSGDALPKQYAYWYQQKPGQAPVLVIYKDTERPSGIPERFSGSSSGTTVTLTISGAQAEDEADYYCQSADSSGTSWVFGGGTKLTVL
notes: Fully human anti-TNF antibody isolated by in vitro display; also called AE11-1 VH; AE11-1 VL
For the molecule B2, the binding result in the assay with Human TNF [1] is “binds”.

B3: hMAK199-1-h10F7-M11.8 DVD-Ig wt (bispecific antibody, human IgG1, kappa)
heavy: not shown
light: DIQMTQSPSSLSASVGDRVTITCRASQDISQYLNWYQQKPGKAPKLLIYYTSRLQSGVPSRFSGSGSGTDFTLTISSLQPEDFATYFCQQGNTWPPTFGQGTKLEIKRGGSGGGGSGDIQMTQSPSSLSASVGDRVTITCRASSGIISYIDWFQQKPGKAPKRLIYATFDLASGVPSRFSGSGSGTDYTLTISSLQPEDFATYYCRQVGSYPETFGQGTKLEIKRTVAAPSVFIFPPSDEQLKSGTASVVCLLNNFYPREAKVQWKVDNALQSGNSQESVTEQDSKDSTYSLSSTLTLSKADYEKHKVYACEVTHQGLSSPVTKSFNRGEC
notes: DVD-Ig; wild-type IgG1, kappa; GS10 linkers; Uncertain; also called HMAK199-1-h10F7-M11.8 HC DVD wt
With B3, the Kd in the assay with Human IL-17A [2] turned out to be 0.0257 nM; with Cynomolgus monkey IL-17A, 0.00444 nM; with Human TNF [3] it was 0.00561 nM; with Rhesus TNFa, 0.0137 nM. The koff in the assay with Human IL-17A [2] is 7.9e-06 s⁻¹; with Cynomolgus monkey IL-17A it was 1.18e-06 s⁻¹; in the assay with Human TNF [3] it was 2.4e-05 s⁻¹; in the assay with Rhesus TNFa, 3.03e-05 s⁻¹. Also, the kon is 307000 M⁻¹ s⁻¹ with Human IL-17A [2], 267000 M⁻¹ s⁻¹ in the assay with Cynomolgus monkey IL-17A, 4.28e+06 M⁻¹ s⁻¹ with Human TNF [3] and 2.2e+06 M⁻¹ s⁻¹ with Rhesus TNFa. The EC50 with Human IL-17A [4] was 0.088 nM; in the assay with Human TNF [6], 0.095 nM. In addition, the “Potency IC50 (nM), L929 bioassay, human TNF” value (shortened to “Potency IC50 (nM)”) with Human TNF [5] stood at 0.033 nM.

B4: hMAK199-1-h10F7-M11.8 QL DVD-Ig (bispecific antibody, human IgG1, kappa, L234A L235A)
heavy: EVQLVQSGAEVKKPGASVKVSCKASGYTFANYGIIWVRQAPGQGLEWMGWINTYTGKPTYAQKFQGRVTMTTDTSTSTAYMELSSLRSEDTAVYYCARKLFTTMDVTDNAMDYWGQGTTVTVSSGGGGSGGGGSEVQLVQSGAEVKKPGSSVKVSCKASGYTFTDYEIHWVRQAPGQGLEWMGVNDPESGGTFYNQKFDGRVTLTADESTSTAYMELSSLRSEDTAVYYCTRYSKWDSFDGMDYWGQGTTVTVSSASTKGPSVFPLAPSSKSTSGGTAALGCLVKDYFPEPVTVSWNSGALTSGVHTFPAVLQSSGLYSLSSVVTVPSSSLGTQTYICNVNHKPSNTKVDKKVEPKSCDKTHTCPPCPAPEAAGGPSVFLFPPKPKDQLMISRTPEVTCVVVDVSHEDPEVKFNWYVDGVEVHNAKTKPREEQYNSTYRVVSVLTVLHQDWLNGKEYKCKVSNKALPAPIEKTISKAKGQPREPQVYTLPPSREEMTKNQVSLTCLVKGFYPSDIAVEWESNGQPENNYKTTPPVLDSDGSFFLYSKLTVDKSRWQQGNVFSCSVLHEALHNHYTQKSLSLSPGK
light: B3 light
notes: DVD-Ig; IgG1 (234,235) mut with QL mutations, kappa; GS10 linkers
With B4, in the assay with Human IL-17A [2], the Kd was < 0.00452 nM, the koff was < 1e-06 s⁻¹ and the kon came out at 221000 M⁻¹ s⁻¹. Further, the EC50 with Human IL-17A [4] worked out at 0.142 nM. Besides, in the assay with Human TNF [5], the “Potency IC50 (nM)” value turned out to be 0.027 nM. Also, the EC50 with Human TNF [6] was found to be 0.119 nM.

B5: hMAK199-1-h10F7-M11.8 DVD-Ig (bispecific antibody, human IgG1, kappa, L234A L235A)
heavy: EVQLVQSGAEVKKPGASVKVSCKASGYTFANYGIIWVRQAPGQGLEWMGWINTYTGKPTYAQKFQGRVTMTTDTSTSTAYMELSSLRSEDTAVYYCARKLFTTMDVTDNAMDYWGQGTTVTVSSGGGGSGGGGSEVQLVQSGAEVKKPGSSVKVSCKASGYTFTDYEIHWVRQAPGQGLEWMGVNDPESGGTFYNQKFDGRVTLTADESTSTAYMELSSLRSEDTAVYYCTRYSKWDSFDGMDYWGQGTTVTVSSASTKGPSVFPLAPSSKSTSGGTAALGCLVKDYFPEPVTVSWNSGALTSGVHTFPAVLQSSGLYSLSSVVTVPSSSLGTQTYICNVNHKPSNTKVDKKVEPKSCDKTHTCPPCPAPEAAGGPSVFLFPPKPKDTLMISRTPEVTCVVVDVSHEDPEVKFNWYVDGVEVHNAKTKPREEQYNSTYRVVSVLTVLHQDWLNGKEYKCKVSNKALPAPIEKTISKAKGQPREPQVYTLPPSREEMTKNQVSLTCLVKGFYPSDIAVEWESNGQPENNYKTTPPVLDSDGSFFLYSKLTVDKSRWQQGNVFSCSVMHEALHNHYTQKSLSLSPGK
light: B3 light
notes: DVD-Ig; IgG1 234,235 mut, kappa; GS10 linkers; also called HMAK199-1-GS10-H10F7-M11 DVD
As to B5, the Kd with Human IL-17A [2] stood at 0.0337 nM; with Cynomolgus monkey IL-17A, 0.00722 nM; with Human TNF [3], 0.0055 nM; with Rhesus TNFa, 0.0108 nM. In addition, the koff in the assay with Human IL-17A [2] came to 1.11e-05 s⁻¹; with Cynomolgus monkey IL-17A, 2.15e-06 s⁻¹; with Human TNF [3], 2.37e-05 s⁻¹; in the assay with Rhesus TNFa, 2.39e-05 s⁻¹. Further, the kon turned out to be 329000 M⁻¹ s⁻¹ with Human IL-17A [2], 299000 M⁻¹ s⁻¹ in the assay with Cynomolgus monkey IL-17A, 4.31e+06 M⁻¹ s⁻¹ with Human TNF [3] and 2.21e+06 M⁻¹ s⁻¹ with Rhesus TNFa. The EC50 was determined as 0.078 nM in the assay with Human IL-17A [4] and 0.22 nM with Human TNF [6]. Moreover, the “Potency IC50 (nM)” value in the assay with Human TNF [5] was determined as 0.031 nM.

B6: AE11-7 (antibody, V domains shown)
VH: EVQLVQSGAEVKKPGASVKVSCKTSGYSLTQYPIHWVRQAPGQRPEWMGWISPGNGNTKLSPKFQGRVTLSRDASAGTVFMDLSGLTSDDTAVYFCTSVDLGDHWGQGTLVTVSS
VL: DIVMTQSPEFQSVTPKEKVTITCRASQSIGSSLHWYQQKPDQSPKLLINYASQSFSGVPSRFSGGGSGTDFTLTINSLEAEDAATYYCHQSSNLPITFGQGTRLEIK
notes: Fully human anti-TNF antibody isolated by in vitro display; also called AE11-7 VH; AE11-7 VL
Consider B6, for which the binding result with Human TNF [1] was “binds”.

B7: AE11-5 (antibody, V domains shown)
VH: EVQLVQSGAEVKKPGSSAKVSCKASGGTFSSYAISWVRQAPGQGLEWMGGIIPILGTANYAQKFLGRVTITADESTSTVYMELSSLRSEDTAVYYCARGLYYDPTRADYWGQGTLVTVSS
VL: DIVMTQSPDFHSVTPKEKVTITCRASQSIGSSLHWYQQKPDQSPKLLIRHASQSISGVPSRFSGSGSGTDFTLTIHSLEAEDAATYYCHQSSSSPPPTFGQGTQVEIK
notes: Fully human anti-TNF antibody isolated by in vitro display; also called AE11-5 VH; AE11-5 VL
For the molecule B7, the binding result with Human TNF [1] is listed as “binds”.
